Laboratory results from patent US9364516B2, “Treatment of fibrosis-related disorders using fibronectin binding proteins and polypeptides” (priority 2010, dated 2016).

Experiments:
[1] = test system: fibronectin binding to the cell surface; assay: Inhibition of fibronectin binding to the cell surface; assay type: cell-based
C57/Bl6 mice = assay: Myocardial infarction by permanent coronary ligation; assay type: in vivo, mouse
Experimental: C57/B16 male mice (12 wks) underwent permanent coronary ligation injury. pUR4 or control peptide (III-11C or del29) was delivered (25 mg/kg/day) in randomized fashion immediately following induction of EKG-verified MI, then once daily via IP injection for 6 days. Serial, investigator-blind echocardiography for 4 weeks was followed by sacrifice; hearts were excised, weighed, and prepared for histological processing. […] FIG. 14B show the % fractional shortening (FS) in control (III-11C, n=8) and pUR4 (n=9) groups.
The therapeutic benefit of pUR4 mediated inhibition of fibronectin polymerization was investigated in a mouse model of myocardial infarction (MI). Male C57/Bl6 mice underwent permanent coronary artery ligation injury, verified at time of surgery by EKG S-T elevation. pUR4 or III-11C were administered via i.p. injection immediately following ligation. Animals subsequently received once daily IP injection for 6 days, and were followed for 4 weeks total. Serial, investigator blind echocardiography assessed cardiac function at baseline, 2 weeks, and 4 weeks.

fibrinogen = target: T1, fibrinogen (Homo sapiens, UniProt P02671+P02675+P02679); assay: ELISA binding of pUR4 to ECM proteins: fibrinogen; conditions: plates coated 10 μg/mL, FIG. 7
T1 construct: purchased Enzyme Research Laboratories (South Bend, Ind.)
T1 sequence (P02671 20-629 limits assumed): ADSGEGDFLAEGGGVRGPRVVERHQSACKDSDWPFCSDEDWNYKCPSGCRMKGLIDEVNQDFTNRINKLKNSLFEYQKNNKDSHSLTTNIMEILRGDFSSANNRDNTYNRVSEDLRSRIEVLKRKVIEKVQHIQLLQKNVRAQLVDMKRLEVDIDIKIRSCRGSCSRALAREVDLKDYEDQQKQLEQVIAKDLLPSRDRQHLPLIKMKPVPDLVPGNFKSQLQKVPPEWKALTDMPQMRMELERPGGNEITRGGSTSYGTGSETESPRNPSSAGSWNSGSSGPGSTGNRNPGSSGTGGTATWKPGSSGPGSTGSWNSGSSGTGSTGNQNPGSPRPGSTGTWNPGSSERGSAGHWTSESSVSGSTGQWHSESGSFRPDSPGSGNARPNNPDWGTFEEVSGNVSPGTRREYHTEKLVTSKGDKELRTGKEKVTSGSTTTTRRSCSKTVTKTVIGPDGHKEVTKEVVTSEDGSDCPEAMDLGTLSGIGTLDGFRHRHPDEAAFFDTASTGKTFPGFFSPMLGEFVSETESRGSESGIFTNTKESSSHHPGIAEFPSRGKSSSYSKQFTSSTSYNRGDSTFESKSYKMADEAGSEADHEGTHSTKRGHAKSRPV
T1 sequence (P02675 31-491): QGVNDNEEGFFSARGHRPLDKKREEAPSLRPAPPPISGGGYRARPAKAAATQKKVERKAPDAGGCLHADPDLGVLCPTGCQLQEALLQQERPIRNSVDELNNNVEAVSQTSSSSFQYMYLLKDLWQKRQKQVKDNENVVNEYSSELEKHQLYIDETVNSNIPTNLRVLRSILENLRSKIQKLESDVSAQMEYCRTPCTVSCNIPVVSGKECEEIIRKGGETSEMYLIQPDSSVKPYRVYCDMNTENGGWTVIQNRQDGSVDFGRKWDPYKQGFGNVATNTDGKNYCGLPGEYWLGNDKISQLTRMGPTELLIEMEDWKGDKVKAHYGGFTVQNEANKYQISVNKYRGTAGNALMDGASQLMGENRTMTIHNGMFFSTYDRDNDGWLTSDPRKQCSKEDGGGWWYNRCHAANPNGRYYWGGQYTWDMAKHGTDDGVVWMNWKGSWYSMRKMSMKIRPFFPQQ
T1 sequence (P02679 27-453): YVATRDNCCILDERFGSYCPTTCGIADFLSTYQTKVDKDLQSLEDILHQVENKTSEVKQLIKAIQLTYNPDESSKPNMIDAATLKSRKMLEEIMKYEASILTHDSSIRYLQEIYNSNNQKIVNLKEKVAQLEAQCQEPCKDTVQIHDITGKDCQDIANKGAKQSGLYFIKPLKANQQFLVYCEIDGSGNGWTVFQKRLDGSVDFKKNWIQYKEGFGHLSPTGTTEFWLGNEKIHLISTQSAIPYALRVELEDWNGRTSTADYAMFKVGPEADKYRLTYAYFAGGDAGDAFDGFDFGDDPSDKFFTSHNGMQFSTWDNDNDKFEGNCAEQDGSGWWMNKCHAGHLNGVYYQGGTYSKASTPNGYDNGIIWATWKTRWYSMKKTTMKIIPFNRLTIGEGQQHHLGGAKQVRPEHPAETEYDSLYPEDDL
Experimental: (§1) FIG. 7 is a graph depicting the binding of pUR4 to ECM Proteins. 96-well plates were coated with 10 μg/mL type I collagen (COL), denatured type I collagen (dCOL), fibronectin (FN), laminin (LN), vitronectin (VN), or fibrinogen (FG) at 4° C. overnight. pUR4 was added to the wells and serially diluted. Bound pUR4 was detected as described herein. Measurements were done at 405 nm on a Wallac 1420 multilabel counter. Data represents the average of duplicate determinations, and the error bars the range.
(§2) 96-well tissue culture plates were coated with 10 μg/mL type I collagen, fibronectin, laminin, fibrinogen, or vitronectin overnight at 4° C. Denatured collagens were generated as described (George et al., “Fibronectins are Essential for Heart and Blood Vessel Morphogenesis but are Dispensable for Initial Specification of Precursor Cells,” Blood 90:3073-3081 (1997), which is hereby incorporated by reference in its entirety). Plates were blocked with 1% bovine serum albumin (BSA) in Tris buffered saline (TBS) for 1 hour, then washed with TBS. pUR4 was serially diluted into coated wells, then incubated at room temperature for 90 min. Wells were washed with TBS containing 0.1% Tween 20. […] After washing, peroxidase activity was quantified by using 2,2′-azino-bis-(3-ethylbenthiazoline-[…]). […]

type I collagen = assay: ELISA binding of pUR4 to ECM proteins: collagen I; conditions: plates coated 10 μg/mL, FIG. 7
Experimental: as §1, §2

[2] = 25 mg/kg/day IP, one week of treatment, up to 4 weeks post-MI
[3] = echocardiography post-MI, p<0.05

B1: pUR4: 49-mer peptide derived from the bacterial F1 adhesin, His tagged, SEQ ID NO:1; class I fibronectin polymerization inhibitor (peptide)
chain: MRGSHHHHHHGSKDQSPLAGESGETEYITEVYGNQQNPVDIDKKLPNETGFSGNMVETEDTKLN
modifications: His tag; Bacterial adhesin derived peptide pUR4
[1]
  EC50: 0.01 µM
C57/Bl6 mice; [2]
  cardiac function (% fractional shortening): preserved
  cardiac hypertrophy (heart weight to body weight ratio): reduced
C57/Bl6 mice; 4 weeks post-MI
  fibronectin deposition within the infarcted area and remote myocardium: reduced
C57/Bl6 mice; FIGS. 15 and 16
  collagen and fibronectin deposition post-MI: reduced
C57/Bl6 mice; [3]
  end systolic diameter: 2.91±0.27
  end-diastolic diameter: 4.12±0.22
C57/Bl6 mice; histology 4 weeks post-MI
  cardiac remodeling, infarct size and infarct expansion: reduction
fibrinogen
  binding to fibrinogen: does not bind
Type I collagen
  binding to collagen I: does not bind
